Test results: paper PMC10046738, “Detection of Alpha Fetoprotein Based on AIEgen Nanosphere Labeled Aptamer Combined with Sandwich Structure of Magnetic Gold Nanocomposites”

Target: T1, alpha-fetoprotein (AFP) (UniProt P02771 19-609)
T1 sequence: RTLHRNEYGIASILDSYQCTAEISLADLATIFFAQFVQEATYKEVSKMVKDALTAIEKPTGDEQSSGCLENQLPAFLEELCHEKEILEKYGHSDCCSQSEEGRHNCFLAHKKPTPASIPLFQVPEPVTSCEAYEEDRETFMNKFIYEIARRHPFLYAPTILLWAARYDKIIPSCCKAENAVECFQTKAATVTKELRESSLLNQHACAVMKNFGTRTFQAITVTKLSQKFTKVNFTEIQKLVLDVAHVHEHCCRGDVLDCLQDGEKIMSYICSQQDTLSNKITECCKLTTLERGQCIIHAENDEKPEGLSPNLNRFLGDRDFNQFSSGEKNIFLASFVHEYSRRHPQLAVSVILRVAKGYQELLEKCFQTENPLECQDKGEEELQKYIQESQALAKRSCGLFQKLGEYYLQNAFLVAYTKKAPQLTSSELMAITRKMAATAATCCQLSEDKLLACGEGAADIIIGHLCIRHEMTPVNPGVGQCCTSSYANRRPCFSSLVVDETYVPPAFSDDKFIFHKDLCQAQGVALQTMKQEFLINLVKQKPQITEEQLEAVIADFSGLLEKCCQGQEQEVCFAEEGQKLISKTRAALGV
Test: fluorescence sandwich aptasensor (magnetic capture); capture aptamer on Fe3O4@MPTMS@AuNPs; AFP 0.005-10 ng/mL; LOD 1.429 pg/mL is not a Kd; PBS 10 mM, pH 7.4 (aptamer 1 immobilization); room temperature, 30 min AFP then 30 min aptamer 2; 15 nM aptamer 1, 8 ug/mL AIEgen aptamer 2, 10 ug/mL Fe3O4@MPTMS@AuNPs
Conditions: label: immobilized on Fe3O4@MPTMS@AuNPs

B1: Aptamer 1 (AFP aptamer, 3'-SH) (ssDNA)
DNA: GTGACGCTCCTAACGCTGACTCAGGTGCAGTTCTCGACTCGGTCTTGATGTGGGTCCTGTCCGTCCGAACCAATC
modifications: 3'-thiol
B1: binds.
